{"source": "paper PMC10891854", "molecular_target": "recombinant Pseudothermotoga hypogea iron-containing alcohol dehydrogenase (Pseudothermotoga hypogea)", "assay": "SEC; Superdex 200 (2.6 x 60 cm), 50 mM Tris-HCl pH 7.8, 100 mM KCl, 2 mL/min; native size worked out from the elution volume against standard proteins and compared with the subunit size by SDS-PAGE", "data": [{"substance": "recombinant Pseudothermotoga hypogea iron-containing alcohol dehydrogenase (enzyme)", "values": [{"measurement": "stoichiometry N", "result": 2}]}]}
